Article doi:10.1101/2023.03.30.534840
Several values for one entry are separate records, joined by “and”; a condition that tells them apart may be missing. Equal entries are not always repeated.

Experiments:
[1] = biological target: His-MeSufB (Monocercomonoides exilis); assay: mass photometry
[2] = biological target: MeSufBC complex (His-MeSufB with MeSufC-HA) (Monocercomonoides exilis); assay: SEC
[3] = biological target: MeSufBC complex (His-MeSufB with MeSufC-HA) (Monocercomonoides exilis); assay: SEC; remark: listed apart in the source
[4] = biological target: MeSufBC complex (His-MeSufB with MeSufC-HA) (Monocercomonoides exilis); assay: mass photometry
[5] = biological target: MeSufBC complex (His-MeSufB with MeSufC-HA) (Monocercomonoides exilis); assay: mass photometry; remark: listed apart in the source
[6] = biological target: His-MeSufC (expressed alone in E. coli) (Monocercomonoides exilis); assay: SEC
[7] = biological target: T25-MeSufB (Monocercomonoides exilis); assay: two-hybrid
[8] = biological target: T25-MeSufC (Monocercomonoides exilis); assay: two-hybrid

MeSufC-HA (enzyme)
stoichiometry N (MeSufC per MeSufB) [1]: 1

MeSufBC complex (His-MeSufB with MeSufC-HA)
stoichiometry N (MeSufBC units) [2]: 4 | stoichiometry N (MeSufBC units) [3]: 2 and 4 | stoichiometry N (MeSufBC units) [4]: 2 | stoichiometry N (MeSufBC units) [5]: 2

His-MeSufC (expressed alone in E. coli) (enzyme)
stoichiometry N [6]: 2

MeSufC-T18 (natural protein)
β-galactosidase activity (BACTH) [7]: 670 Miller units

B1: EcSufB-T18 (natural protein)
chain: MSRNTEATDDVKTWTGGPLNYKEGFFTQLATDELAKGINEEVVRAISAKRNEPEWMLEFRLNAYRAWLEMEEPHWLKAHYDKLNYQDYSYYSAPSCGNCDDTCASEPGAVQQTGANAFLSKEVEAAFEQLGVPVREGKEVAVDAIFDSVSVATTYREKLAEQGIIFCSFGEAIHDHPELVRKYLGTVVPGNDNFFAALNAAVASDGTFIYVPKGVRCPMELSTYFRINAEKTGQFERTILVADEDSYVSYIEGCSAPVRDSYQLHAAVVEVIIHKNAEVKYSTVQNWFPGDNNTGGILNFVTKRALCEGENSKMSWTQSETGSAITWKYPSCILRGDNSIGEFYSVALTSGHQQADTGTKMIHIGKNTKSTIISKGISAGHSQNSYRGLVKIMPTATNARNFTQCDSMLIGANCGAHTFPYVECRNNSAQLEHEATTSRIGEDQLFYCLQRGISEEDAISMIVNGFCKDVFSELPLEFAVEAQKLLAISLEHSVG
β-galactosidase activity (BACTH) [8]: 556 Miller units

B2: EcSufC-T18 (natural protein)
chain: MLSIKDLHVSVEDKAILRGLSLDVHPGEVHAIMGPNGSGKSTLSATLAGREDYEVTGGTVEFKGKDLLALSPEDRAGEGIFMAFQYPVEIPGVSNQFFLQTALNAVRSYRGQETLDRFDFQDLMEEKIALLKMPEDLLTRSVNVGFSGGEKKRNDILQMAVLEPELCILDESDSGLDIDALKVVADGVNSLRDGKRSFIIVTHYQRILDYIKPDYVHVLYQGRIVKSGDFTLVKQLEEQGYGWLTEQQ
β-galactosidase activity (BACTH) [7]: 1040 Miller units
